Patent US20100233157A1 (published 2010)

How the values were obtained:
[1] = target: T1, Chimpanzee Fas on the cell surface (chimpanzee, UniProt K6ZIR5 26-335); assay: flow cytometry, chimpanzee B cell line
T1 construct: also called Fas on chimpanzee B cell line
T1 sequence: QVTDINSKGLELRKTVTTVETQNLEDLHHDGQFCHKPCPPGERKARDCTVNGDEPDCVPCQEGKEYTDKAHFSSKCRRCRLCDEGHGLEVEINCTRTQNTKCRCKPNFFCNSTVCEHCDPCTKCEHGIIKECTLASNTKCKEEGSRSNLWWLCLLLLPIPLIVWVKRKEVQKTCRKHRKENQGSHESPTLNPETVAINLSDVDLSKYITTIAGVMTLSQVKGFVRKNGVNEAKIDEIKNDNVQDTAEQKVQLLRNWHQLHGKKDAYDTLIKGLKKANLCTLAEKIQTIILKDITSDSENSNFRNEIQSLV
Source text: (§1) Reactivity of F45D9-γ1 or F45D9-γ4 mAb with Fas molecules of various species was initially screened using primary blood cells or lymphocytes cell lines. The binding of F45D9-γ1 or F45D9-γ4 mAb was explored by immunofluoresce staining and flow cytometry analysis, in human PBMC, purified human resting T cells, activated human T cells, peripheral blood lymphocytes (PBL) derived from BALE/c mice, rat, dog and pig, and in B cell lines or PBL derived from common marmoset, cynomolgus macaque, olive baboon, rhesus macaque and chimpanzee. Resting and activated human T cells were prepared as described in Example 7. B cells lines from monkeys were obtained from Biomedical Primate Research Center (Rijswijk, The Netherlands), and were cultured in RPMI 1640 medium supplemented with 2 mM glutamax, 100 UI/mL penicillin, 100 μg/mL streptomycin and 10% fetal bovine serum, at 37° C. and 5% CO₂. After washing in PBS cells (0.2−0.4×10⁶ cells/well) were incubated in staining buffer (PBS/1% FBS) containing F45D9-γ1 or human IgG control antibodies (10-20 ug/ml) in a 96-well U-bottom plate for 30 min on ice, in a 100 ul/well volume. Cells were then washed once with staining buffer, and further incubated for 30 min on ice with 1:30 dilution of FITC-conjugated rabbit F(ab′)₂ anti-human kappa (DakoCytomation Cat. F0434) or FITC-conjugated rabbit F(ab′)₂ anti-human IgG (DakoCytomation Cat. F0056). […]

[2] = target: T2, Recombinant human soluble Fas receptor (PeproTech, Cat. 310-20) (human, UniProt P25445 17-173); assay: SPR (BIAcore 3000), soluble Fas immobilized on CM5 chip; antibody form and model not given
T2 construct: Bought soluble form; also called sFas; rFas
T2 sequence (looked up): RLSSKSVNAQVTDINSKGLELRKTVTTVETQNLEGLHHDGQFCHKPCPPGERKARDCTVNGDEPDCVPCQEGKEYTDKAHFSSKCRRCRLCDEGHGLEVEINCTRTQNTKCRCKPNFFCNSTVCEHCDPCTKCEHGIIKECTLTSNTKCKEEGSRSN

[3] = target: T3, Pig Fas on the cell surface (pig, UniProt O77736 17-332); assay: flow cytometry, pig peripheral blood lymphocytes
T3 construct: whole, on cells; also called Fas on pig peripheral blood lymphocytes
T3 sequence (looked up): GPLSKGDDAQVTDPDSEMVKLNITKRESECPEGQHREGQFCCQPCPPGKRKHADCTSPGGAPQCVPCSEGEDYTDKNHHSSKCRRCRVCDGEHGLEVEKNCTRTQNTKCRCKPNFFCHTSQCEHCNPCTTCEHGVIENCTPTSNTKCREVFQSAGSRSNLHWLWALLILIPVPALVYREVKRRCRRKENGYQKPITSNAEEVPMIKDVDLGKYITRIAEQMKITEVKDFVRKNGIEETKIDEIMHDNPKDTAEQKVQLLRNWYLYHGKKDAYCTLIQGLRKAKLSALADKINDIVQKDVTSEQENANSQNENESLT
Source text: as §1

[4] = target: T4, Cynomolgus macaque Fas on the cell surface (cynomolgus macaque, UniProt Q9TSN4 26-331); assay: flow cytometry, cynomolgus macaque B cell line
T4 construct: whole, on cells; also called Fas on cynomolgus macaque B cell line and PBL
T4 sequence (looked up): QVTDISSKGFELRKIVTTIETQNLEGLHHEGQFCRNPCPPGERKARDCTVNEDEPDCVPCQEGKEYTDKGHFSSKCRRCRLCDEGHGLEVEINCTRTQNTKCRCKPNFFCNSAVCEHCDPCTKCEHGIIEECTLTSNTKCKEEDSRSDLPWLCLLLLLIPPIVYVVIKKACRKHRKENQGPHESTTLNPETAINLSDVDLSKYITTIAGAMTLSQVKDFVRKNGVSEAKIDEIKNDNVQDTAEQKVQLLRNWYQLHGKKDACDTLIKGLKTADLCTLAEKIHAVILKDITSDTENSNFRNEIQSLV
Source text: as §1

[5] = target: T5, Mouse Fas on the cell surface (mouse, UniProt P25446 22-327); assay: flow cytometry, peripheral blood lymphocytes of mice
T5 construct: whole, on cells; also called Fas on peripheral blood lymphocytes of BALB/c mice
T5 sequence (looked up): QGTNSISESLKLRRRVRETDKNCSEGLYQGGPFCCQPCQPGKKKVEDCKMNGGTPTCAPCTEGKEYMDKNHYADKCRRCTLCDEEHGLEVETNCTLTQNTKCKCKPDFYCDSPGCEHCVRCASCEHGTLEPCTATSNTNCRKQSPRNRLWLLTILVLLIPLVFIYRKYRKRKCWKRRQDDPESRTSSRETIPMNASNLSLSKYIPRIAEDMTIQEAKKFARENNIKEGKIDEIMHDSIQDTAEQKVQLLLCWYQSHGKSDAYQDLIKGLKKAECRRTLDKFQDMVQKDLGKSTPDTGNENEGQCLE
Source text: as §1

[6] = target: T6, Rat Fas on the cell surface (rat, UniProt Q63199 22-324); assay: flow cytometry, rat peripheral blood lymphocytes
T6 construct: whole, on cells; also called Fas on rat peripheral blood lymphocytes
T6 sequence (looked up): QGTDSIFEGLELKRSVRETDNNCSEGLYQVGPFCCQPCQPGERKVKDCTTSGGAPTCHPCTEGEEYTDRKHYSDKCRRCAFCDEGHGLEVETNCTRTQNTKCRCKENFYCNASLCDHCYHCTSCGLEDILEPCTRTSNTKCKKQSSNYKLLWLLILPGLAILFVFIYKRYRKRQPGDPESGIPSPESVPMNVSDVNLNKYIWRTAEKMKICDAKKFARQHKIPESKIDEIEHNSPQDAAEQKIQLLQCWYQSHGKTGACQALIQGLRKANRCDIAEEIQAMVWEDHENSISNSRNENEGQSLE
Source text: as §1

[7] = target: T7, Rhesus macaque Fas on the cell surface (rhesus macaque, UniProt Q9BDP2 26-333); assay: flow cytometry, rhesus macaque B cell line
T7 construct: whole, on cells
T7 sequence (looked up): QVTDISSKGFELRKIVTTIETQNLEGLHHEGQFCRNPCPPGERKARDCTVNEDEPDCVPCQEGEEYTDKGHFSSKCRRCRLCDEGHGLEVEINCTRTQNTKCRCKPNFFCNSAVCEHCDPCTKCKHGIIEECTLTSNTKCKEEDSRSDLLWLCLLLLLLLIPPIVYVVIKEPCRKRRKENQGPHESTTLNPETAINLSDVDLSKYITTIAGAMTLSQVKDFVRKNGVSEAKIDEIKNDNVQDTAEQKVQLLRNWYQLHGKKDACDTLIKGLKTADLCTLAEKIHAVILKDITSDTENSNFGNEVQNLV
Source text: as §1

B1: F45D9 mAb (isotype not specified at the place) (antibody, V domains shown)
VH: QVQLQQWGAGLLKPSETLSLICAVYGGSFSTYYWTWIRQPPGKGLEWIGEINHRGTTNYSPSLKSRVTISVDTSKNHISLNLTSVTAADTALYYCARGLLWIGEGDYGLDVWGQGTTVTVSS
VL: DIQMTQSPSSLSASVGDRVTITCRASQGIRRWLAWYQQKPEKAPKSLIYAASSLQSGVPSRFSGSGSGTDFTLTISSLQPEDFATYYCQQYNSYPYTFGQGTKLEIKR
notes: also called F45D9 mAb's
[1]
  binding result: binds
[2]
  Ka: 6.5e+09 M⁻¹
  Kd: 153 pM
[3]
  binding result: no binding (tested: 10-20 ug/ml)
[4]
  binding result: no binding
[5]
  binding result: no binding (tested: 10-20 ug/ml)
[6]
  binding result: no binding (tested: 10-20 ug/ml)
[7]
  binding result: no binding
